Where two headings read alike, the source gives them in different places.
Tests used:
[1] = pyrazoline bound to SilMA, derived from the named DAT
Method: Fluorophores bound to either silk or PEG-DA were generated by dissolving a DAT precursor to a final concentration of 100 μM in water for silk-bound fluorophores and either DIW, IPA or ethyl acetate (EtAc) for PEG-DA-bound fluorophores. These were reacted by exposure to 302 nm light (specs) for 10 minutes under constant stirring. To an opaque black 96-well plate (Corning 3915) was added 3 separate 100 μL aliquots of fluorophore solution. These were measured by a Molecular Devices SpectraMax M2 plate reader, exciting at either 300, 365 or 405 nm and recording spectra from 25 nm […] the excitation wavelength down to 650 nm with a 5 nm resolution.

[2] = DAT precursor, UV-Vis absorption
Method: Spectroscopy was performed using a Synergy HT plate reader in with sample Corning Costar UV-transparent 96 well plates (Corning 3635). Initially samples were diluted to 1 mg/mL in either IPA or DIW and a dilution curve was made with each step reducing the concentration by half. The concentration chosen for measurement was the most concentrated sample that had the peak of interest entirely below 1.0 absorption units. When an appropriate concentration was found 100 μL of sample was then loaded into each well with samples loaded in triplicate. If the standard deviation between replicates exceeded 0.05 AU the measurement was repeated with fresh samples.

[3] = Fluorescence titration (pH dependence, pKa) of PEG-DA-bound pyrazolines; assay type: physicochemical
Method: A 100 mL beaker was placed on a stir plate and filled with 50 mL of either deionized water or isopropyl alcohol and a magnetic stirrer. Fluorescent pyrazoline bound to PEG was added to a final concentration of 1 mg/mL and stirred until homogenous. An Ocean Optics SR fiber spectrometer was attached to a UV-Vis optical fiber (200-800 nm, 200 μm core diameter) and the fiber was mounted such that it was normal to the surface of the liquid. A 365 nm LED was placed at such that it illuminated the beaker from the side, perpendicular to the orientation of the fiber. If deionized water was used as the solvent, a pH probe was immersed in the liquid as well. The LED was switched on and the spectrometer exposure time was adjusted until the fluorescent peak reached at least 1000 counts or 3 seconds of exposure, whichever occurred first. During capture 5 exposures were averaged and smoothed by a 9-point moving average. […]
To determine the exact pH dependance of the fluorescence transition, fluorescence was monitored during an acid-base titration with a custom optical set-up (FIG. 12). […]
Resulting titrations generally produced either a sigmoidal curve with high and low pH stable regimes (FIG. 14A) or a static, pH independent fluorescence (FIG. 14B). […] The pKa values estimated by fluorescence are generally within their estimated pKa windows, with the exception of the amino derivatives (FIG. 14D). […]

[4] = Patterned fluorescent films (SilMA or SF/PEG-DA); assay type: physicochemical
Method: Multispectral imaging was performed with a Nuance FX multispectral imaging system with a Canon macro lens and illuminated by 365 nm light. Exposure times were varied by sample and were selected by automatic exposure timing in the acquisition software. Images were processed using Nuance software and spectral elements were picked by hand from at least 20 sample locations. Raw processed spectra had large discontinuities introduced by the internal monochromator, which were removed with a custom algorithm.
A glass coverslip (22×22 mm) was placed onto the vacuum chuck of a Laurell WS-650 spin coater. Onto the surface was pipetted 100 μL of silk solution (7.0% w/w silk fibroin, 0.7% w/w polyethylene glycol diacrylate), which was manually spread to cover the entire surface. […] The sample was then water vapor annealed by being placed in a Memmert UN 30 Plus humidity-controlled oven at 45 C and 90% relative humidity. A timer was started once the oven had reached 90% humidity after then drop due to sample addition and allowed to sit in the oven for 5.0 minutes. Once removed the sample was loaded onto the vacuum chuck again and 30 μL of DAT solution (5 mg/mL DAT in isopropyl alcohol) was dropped onto the surface. A combined spreading/evaporation program was run with a single 20 second phase (4000 RPM, 250 RPM/sec). The sample was then covered by a photomask and exposed to 302 nm UV light (Labortechnik UVLMS-38 8 Watt UV multiwavelength lamp) to induce the photoclick reaction. If a multi-emitter film was to be fabricated, then a PDMS isolation layer must be applied if the lower layer is composed of SF/PEG-DA. To form the isolation layer, Sylgard 184 monomer was mixed with curing agent in a 10:1 ratio and 500 μL was applied to the glass slide by spin coating (5 sec, 500 RPM spread, 30 sec 5000 RPM thinning, 500 RPM/sec acceleration). This was cured by heating the slide on a 80 C hotplate for 30 minutes. The subsequent layer could then be applied in an identical manner to the first. If SilMA was used as the lower layer, the isolation layer is not needed and the second layer can be applied directly.
Films were fabricated with a spin-coating process, where either SilMA or a mixture of SF and PEGDA were dropped onto glass coverslips and spun to produce uniform films. Afterwards the films were water vapor annealed to recrystallize them and lock in the position of the polymer(s). Next a solution of the DAT dye in IPA or DI water was drop cast onto the surface, then spun to remove excess solution. This film was then exposed to 302 nm UV light through a quartz photomask or steel shadow mask for 30 seconds. The DAT impregnated films reacted promptly and attained 60% of their full fluorescent brightness in 30 seconds and their maximum brightness in less than 5 minutes (FIG. 21A,B). […]

[5] = literature values of related compounds; cited from earlier work

| SMILES | Emission λmax ([1]; pH 3) [nm] | Excitation λmax ([1]; pH 3) [nm] | Emission λmax ([1]; pH 10) [nm] | Excitation λmax ([1]; pH 10) [nm] | Excitation λmax ([2]; peak 1) [nm] | pH at which highly emissive state is centered [3] | fluorescence of resulting pyrazoline in film ([4]; PEG-DA/SF films) | fluorescence of resulting pyrazoline in film ([4]; SilMA films) | Excitation λmax ([2]; peak 2) [nm] | Excitation λmax ([2]; peak 3) [nm] | pKa [5] |
| --- | --- | --- | --- | --- | --- | --- | --- | --- | --- | --- | --- |
| CCOC(=O)c1ccc(-n2nnc(-c3ccc(C(=O)O)cc3)n2)cc1 [DAT-2, 2-(4-(ethoxycarbonyl)-phenyl)-5-(4-carboxyphenyl)-2H-tetrazole] | 460 | 370 | 455 | 350 | 265 |  |  |  |  |  |  |
| O=C(O)c1ccc(-c2nnn(-c3ccc(S(=O)(=O)O)cc3)n2)cc1 [DAT-3, 2-(4-sulfophenyl)-5-(4-carboxyphenyl)-2H-tetrazole] | 490 | 385 | 460 | 375 | 279 |  |  |  |  |  |  |
| O=C(O)c1ccc(-c2nnn(-c3ccc(O)cc3)n2)cc1 [DAT-4, 2-(4-hydroxyphenyl)-5-(4-carboxyphenyl)-2H-tetrazole] | 530 | 335 | 530 | 360 | 296 |  |  |  |  |  |  |
| O=C(O)c1ccc(-c2nnn(-c3ccc(B(O)O)cc3)n2)cc1 [DAT-5, 2-(4-boronophenyl)-5-(4-carboxyphenyl)-2H-tetrazole] | 505 | 370 | 475 | 380 | 285 | 6 |  |  |  |  |  |
| O=[N+]([O-])c1ccc(-c2nnn(-c3ccccc3)n2)cc1 [DAT-6, 5-(4-nitrophenyl)-2-phenyl-2H-tetrazole] |  |  |  |  | 296 |  |  |  |  |  |  |
| O=[N+]([O-])c1cccc(-c2nnn(-c3ccccc3)n2)c1 [DAT-7, 5-(3-nitrophenyl)-2-phenyl-2H-tetrazole] |  |  |  |  | 266 |  |  |  |  |  |  |
| Nc1ccc(-c2nnn(-c3ccccc3)n2)cc1 [DAT-8, 5-(4-aminophenyl)-2-phenyl-2H-tetrazole] |  |  |  |  | 294 |  |  |  |  |  |  |
| Nc1cccc(-c2nnn(-c3ccccc3)n2)c1 [DAT-9, 5-(3-aminophenyl)-2-phenyl-2H-tetrazole] | 455 | 365 | 460 | 375 | 271 |  | visible | nearly completely quenched |  |  |  |
| Oc1ccc(-c2nnn(-c3ccccc3)n2)cc1 [DAT-10, 5-(4-hydroxyphenyl)-2-phenyl-2H-tetrazole] | 435 |  | 435 | 355 | 253 |  | visible | nearly completely quenched | 281 | 300 |  |
| OB(O)O [boric acid] |  |  |  |  |  |  |  |  |  |  | 9.15 |
